B1: KCTD10 (parent)
chain: SSKEEQKLIATSNKPAVKLLYNRS

Variants of: B1
Test: protein stability index of a GFP-peptide fusion (GPS, HEK-293T) (PSI 1-6); higher = more stable
Conditions: c terminus: a fixed tail appended
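Note: lentivirally expressed fusions sorted by FACS into six bins by GFP to DsRed ratio, PSI derived from sequencing read proportions per bin multiplied by bin number.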

Protein stability index, by site and new letter:
K3: E 4.16; F 3.83; G 3.32; H 4.23; I 3.91; L 4.07; M 4.08; N 4.04; P 4.06; Q 4.25; R 3.97; S 3.58; T 4.18; V 3.96; W 3.93; Y 3.26
E4: A 3.3; C 3.55; D 4.01; F 3.6; G 3.46; H 3.09; I 3.06; K 3.69; L 3.52; M 2.82; N 3.87; P 3.64; Q 4.06; R 3.66; S 3.99; T 3.26; V 3.5; W 3.24; Y 2.83
E5: A 3.38; C 3.34; D 4.13; F 2.26; G 1.71; H 3.78; I 2.97; K 3.35; L 2.83; M 2.97; N 3.7; P 3.56; Q 3.83; R 3.59; S 3.87; T 3.82; V 2.8; W 1.79; Y 2.97
Q6: A 4.23; C 4.15; D 4.5; E 4.52; F 3.15; G 3.8; H 4.08; I 3.33; K 3.1; L 3.59; M 3.56; N 3.96; P 4; R 3.93; S 3.86; T 4.44; V 3.6; W 2.79; Y 4.01
K7: A 4.1; C 3.86; D 4.49; E 4.4; F 3.02; G 4.45; H 3.85; I 3.28; L 3.21; M 3.3; N 4.32; P 4.39; Q 4.25; R 3.92; S 3.55; T 3.87; V 3.68; W 2.87; Y 3.29
L8: A 4.88; C 4.42; D 4.88; E 4.96; F 3.51; G 4.51; H 4.46; I 4.32; K 4.75; M 4.43; N 4.31; P 4.88; Q 4.6; R 4.34; S 4.62; T 4.47; V 4.66; W 3.79; Y 4.02
I9: A 3.97; C 3.91; D 4.74; E 4.72; F 4.08; G 4.54; H 3.81; K 4.39; L 3.98; M 3.96; N 4.36; P 4.69; Q 4.31; R 4.33; S 4.34; T 4.18; V 4.34; W 3.93; Y 4.41
A10: C 3.88; D 3.78; E 4.51; F 3.44; G 3.86; H 4.2; I 2.74; K 4.15; L 3.73; M 3.51; N 4.41; P 3.78; Q 4.27; R 3.88; S 4.01; T 4.39; V 3.45; W 3.51; Y 3.65
T11: A 4.42; C 3.61; D 4.68; E 4.58; F 3.63; G 4.16; H 3.94; I 3.73; K 4.19; L 3.7; M 3.6; N 3.92; P 3.97; Q 4.15; R 3.37; S 4.26; V 3.75; W 3.35

— the supplement of paper PMC10567573
